Data: US10100341B2, “Tailored oils produced from recombinant oleaginous microorganisms” (Corbion Biotech, Inc., priority 2011, dated 2018)

B1: Amt03-Ammonium transporter 03 promoter/5′UTR: putative nitrogen-regulated promoter/5′UTR, SEQ ID NO: 60 (nucleic acid, listed as Prototheca moriformis)
DNA: GGCCGACAGGACGCGCGTCAAAGGTGCTGGGCGTGTATGCCCTGGTCGGCAGGTCGTTGCTGTTGCTGCGCTCGTGGTTCCGCAACCCTGATTTTGGCGTCTTATTCTGGCGTGGCAAGCGCTGACGCCCGCGAGCCGGGCCGGCGGCGATGCGGTGTCTCACGGCTGCCGAGCTCCAAGGGAGGCAAGAGCGCCCGGATCAGCTGAAGGGCTTTACACGCAAGGTACAGCCGCTCCTGCAAGGCTGCGTGGTGGACTTGAACCTGTAGGTCCTCTGCTGAAGTTCCTCCACTACCTCACCAGGCCCAGCAGACCAAAGCACAGGCTTTTCAGGTCCGTGTCATCCACTCTAAAACACTCGACTACGACCTACTGATGGCCCTAGATTCTTCATCAACAATGCCTGAGACACTTGCTCAGAATTGAAACTCCCTGAAGGGACCACCAGAGGCCCTGAGTTGTTCCTTCCCCCCGTGGCGAGCTGCCAGCCAGGCTGTACCTGTGATCGAGGCTGGCGGGAAAATAGGCTTCGTGTGCTCAGGTCATGGGAGGTGCAGGACAGCTCATGAAACGCCAACAATCGCACAATTCATGTCAAGCTAATCAGCTATTTCCTCTTCACGAGCTGTAATTGTCCCAAAATTCTGGTCTACCGGGGGTGATCCTTCGTGTACGGGCCCTTCCCTCAACCCTAGGTATGCGCGCATGCGGTCGCCGCGCAACTCGCGCGAGGGCCGAGGGTTTGGGACGGGCCGTCCCGAAATGCAGTTGCACCCGGATGCGCGGCGCCTTTCTTGCGATAATTTATGCAATGGACTGCTCTGCAAATTTCTGGGTCTGTCGCCAACCCTAGGATCAGCGGCGTAGGATTTCGTAATCATTCGTCCTGATGGGGAGCTACCGACTACCCTAATATCAGCCCGGCTGCCTGACGCCAGCGTCCACTTTTGCGTACACATTCCATTCGTGCCCAAGACATTTCATTGTGGTGCGAAGCGTCCCCAGTTACGCTCACCTGTTTCCCGACCTCCTTACTGTTCTGTCGACAGAGCGGGCCCACAGGCCGGTCGCAGCC
B2: SugT Sugar transporter promoter/5′UTR: putative nitrogen-regulated promoter/5′UTR, SEQ ID NO: 59 (nucleic acid, listed as Prototheca moriformis)
DNA: CCAGGCAGGCGGTAGGGTTGCCGATTGCTTGAGCGAATTGGAAGATATAATTTTTTGTGGTGTCCCTGGACGCTGTTTGTGGCGCTCCTTTTTGGAGAAGATTGCGTGGGGGAGCTTTCCATGTACCACGCTTCCTTCTGAAAGGATTCTGGCCGAGTCCTGATGAGCCCAAAGAAAACACCTGCCTTTCAGTGCTGGCACTCTGAAAACGTCAACAGATGATTATACATGTCACAAAAGGCAGCCGATTAGGAACGGGAGCTCTGGCCGTTCGTTTGGCTGCCTGGGCTGATTGAAGTGATCCACCCTGTTCGAATGAAGGCGGTCGAGTCGAATTATCGACCGGAGCTGTCGGGAAGGCGTCCGGGGCAGAGTGAGGTGCTGCGGCCTGGTTGTCGTTCAAAAAGACCCCGGTAGCCCAACAATCACGAACGAAAGGAATATAATTGCTTGCATACTATACATTCAGTTTCTATGTGGCGGGTAGACAAGTCTCATGGGCTTCTAAAGGCTGTCCCTTGAAGGCTACTTATAAAAACTTGCTGCGCCATGGCACGGATCGCGCTTGCGCAGGCTGCAACCCTGCGCGCAAGGTCAAATACACAGCAAAAGATACTAACAGAATTTCTAAAAACATTTAAATATTTGTTTCGACCAGCCAATTGTGGTCGTAGGCACGCAAAAGACTTTGTTTTGCGCCCACCGAGCATCCACGCTGGCAGTCAAGCCAGTCCGATGTGCATTGCGTGGCAGCATCGAGGAGCATCAAAAACCTCGTGCACGCTTTTCTGTCAATCATCATCAACCACTCCACCATGTATACCCGATGCATCGCGGTGCGCAGCGCGCCACGCGTCCCAGACCCGCCCAAAAACCCAGCAGCGGCGAAAGCAAATCTTCACTTGCCCGAAACCCCGAGCAGCGGCATTCACACGTGGGCGAAAACCCCACTTGCCCTAACAGGCGTATGTCTGCTGTCACGATGCCTGACAACGGTATTATAGATATACACTGATTAATGTTTGAGTGTGTGCGAGTCGCGAATCAGGAATGAATTGCTAGTAGGCACTCCGACCGGGCGGGGGCCGAGGGACCA
B3: Aat01-Amino acid transporter 01 promoter/5′UTR: putative nitrogen-regulated promoter/5′UTR, SEQ ID NO: 62 (nucleic acid, listed as Prototheca moriformis)
DNA: CGAAGGGGTCTGCATCGATTCGCGCGGTCTGGAGGCCAGCGTGACTGCTCGCGAAAATGCTCTGCCGTGTCGGGCTCTGGCTGGGGCGGCCAGAGATCTCACCGTGCCACACGCAACTGCCGCACTCTGTGCCCGCCACCTGGCGCGCACATGCGACCTCTTCCCCGTCATACCCTCTCCTCATGTGATCTTTCCACACGAGTGACGCAGGTGCGCGGAGTGGAGGGAATCAGGACGTTTTCAAGGTACCTGCTCGAGCCGTACCAACAGCTGCCGCCCGGCAAGGAAGAGATCGAGGCAGAGATTGCCCGGCTGGAGGCCCGGATAACGGAGCTCAAGAGCAAGCTGTCCGAGTGAGACCGCCCAGGTGCACGTGTCGACTCGCTATGACATGTACTCGACACAACATGAGGAATTCATCGAATTTGTAGGAAGCGGGCATTGGTACGGGAGTGGGAAAGCGAAAAAACCTCCCTCCGGCAGTGCCATCTGCCGGAGTCGAACGTTGATAGGGTTCTCGTGACAGGGTGTGACCTCTCAGCCTTGCATCAATTAAACGCTATAGACATTATCAGTAACCGTGAATCCCGCATTGGATGCCACCCGCGCGACCATTGGGGACCTGCATTACAGATCTAGGTGAGATGACAGCGAGGCAACTTCGGCCCGCGGCCCAGCTTGCGGCGCACCAATATTGGTCACGGGAAGCCACACACCGACCATAAATGAATACTTGTAAGCTATGTCAACCGATCAATGGCGTCGAAAGTGTGCCACGAGGATCCATCTGGCGGGGCGGCGTGGCGCACAAGCGCAGTCGCAATTTCTCGGACCCATCTGACCTAGGCCCAGCGCCGCGGGAGAAATCCCCGGCGGGTCCTCCACGCAGTAACCCTAATGAGTATCGAGCGCCGACCATTTACACCATCGCCCCCGAAATCCTTCCGACATTATTATTATCTTTTAGATCTTGGAACAGACTCTGCCAACC
B4: Flap Flagellar-associated protein promoter/5′UTR: putative nitrogen-regulated promoter/5′UTR, SEQ ID NO: 57 (nucleic acid, listed as Prototheca moriformis)
DNA: CAACGACAACCAGCAGGCAACTCGGTCAGCGACCCAACACGCGAGTCAAATTGTTGCGTGTTCTTGCCTTGTCTATTTACTGTGATAGCAAGACTGTCGGTCAGTCAATACCGCGGTGCGCACGTCGGGGTGCCAAGCCTAGCAGAGCACGGGACGGCTGGTGCTGTGCGCCAGCTCAGCTCGCTTCGCGACCAATTGTAGGACCGGCAAAGTCACCAAAACATGCCAGCGGTGCGATTCAATTGGTCATGAGCTCTACAAAATTGTTTTGTGCGTCGCGCAGGTATCCAACGGCGCGGCAGAGAAAGTTTGACAGCTCTCGATTTCATCTCGGAAAAATGGGGAGAATTTATGACACACAAGTGCGCAGGCGGCCCAGGCGGCCAGCATATTCTGGCGTGACCTGGGCCGCCCACAAAATGCTTGGATGCACTCTAAAATAATTATATTTGCCATGAACAAGGGAAGAGTTACCGCACCCAGCCCTAGACTTGGGCGCCCGAGCAAGGTTACGTCAAGCCACCTTCGCCCATCGCCCAACTCCGTATTCCCCGACAGCCGCACGTGGCCCTCGCCGGAATGAACCCTGAATCGGCATCACGCCACGCGTTCGCCAATCGTTCCGCTCTCTGGCTTCATCGGCCTGCGCCTTCACGTCGTGGTCACGACAGTGCATTCATACTTCCATTTGCACCTCGGCACACACTTTTACGCATCGCCTACCCTTGCTGCGGCAGTCTAGGGTCACTTTGCAGCCATGGGACAGTGCTACACCACCGTCGGTGCGCAAAGCTATTTCAAGTGAACCGTGGGCGGAAAAAAGGAATGTACACTGTCTCAACCGACTCCTACAATTGTTTACCATGCAGATCAGAGCTCGACGGCCATCATCGAGCAGGTGTGGGGCCTTGGTGGCGCGGCGCGGGGCCCCAGGGCGTCGCAGGCATTGATGGCACTCTGAGACTTTCGCACGCGCATGAGGGACCCCATCAAGAGAAGAGTGTGTCTTTATGTCCCCATTCATGATGATGTATCTTGTGATTGTCGCAGTTTGGCAAGTTTAACCGGATCGCCGCTCCAGGTGTGGCGTGGCGGATTTTTCTAGGGGTGCTTGAGCAGTCG
B5: SulfRed Sulfite reductase promoter/5′UTR: putative nitrogen-regulated promoter/5′UTR, SEQ ID NO: 58 (nucleic acid, listed as Prototheca moriformis)
DNA: GGCCCAGGGCCCTGCGGATGGCCCACACCAGATCTAGCCTCTCTTATGCCATGCCCGCCTCGCTGCCCGTCGTATCCCCCCGCCGATCCGCGCGTAGGGGACCGCGGCCTGACCCACGCCACGAAAGAGCTTTGCTCCTCAATTTCTCGCCAACAGAACCGTATCAAACGCTCAACGCCTATCCCGAACAATCCGTATTCACACCAAATCGAGTATACCGGACTGGTTTGCCTAGTCTTGAAGGAAATGATCCCGTCCATGCTCGGAAGGGGGAGCGGGCGGAGGATCCTACTCATCTCTGAAATGGGATTGGTCCGAAGATGGGTTGGGCAAGCACGTGCCAAACCCCAGCGAGTTGCTGACGAGCAGGCTCATCCAATCCCCCGGCGAATCCTCCCTCACGCCCCGCATGCATACAAGTCCCTCCCACACGCCCCCTCCCATCCATTTTCGCCTGGTCCGAACGCGAGCGGCGTCGAGGCGGACCACTTGCTCCGCAGCGCCGTCTGGGTCTCCACCCCACAGCGGCTTTGCTGCCAGAGGCACCCCCCTTGCCCCACCTCCTCTTGCAGCC

What was measured:
[1] = test system: Prototheca moriformis (UTEX 1435); assay: cDNA abundance by real-time RT-PCR under nitrogen depletion; type: cell-based; conditions: after 24 hours of culture in low nitrogen medium
Method: A cDNA library was generated from Prototheca moriformis (UTEX 1435) using standard techniques. The Prototheca moriformis cells were grown for 48 hours under nitrogen replete conditions. […] After about 24 hours in culture, the nitrogen supply in the media was completely depleted. The collected samples were immediately frozen using dry ice and isopropanol. Total RNA was subsequently isolated from the frozen cell pellet samples and a portion from each sample was held in reserve for RT-PCR studies. The rest of the total RNA harvested from the samples was subjected to polyA selection. Equimolar amounts of polyA selected RNA from each condition was then pooled and used to generate a cDNA library in vector pcDNA 3.0 (Invitrogen). Roughly 1200 clones were randomly picked from the resulting pooled cDNA library and subjected to sequencing on both strands. Approximately 68 different cDNAs were selected from among these 1200 sequences and used to design cDNA-specific primers for use in real-time RT-PCR studies. RNA isolated from the cell pellet samples that were held in reserve was used as substrate in the real time RT-PCR studies using the cDNA-specific primer sets generated above. This reserved RNA was converted into cDNA and used as substrate for RT-PCR for each of the 68 gene specific primer sets. […] As discussed in the specification, nitrogen depletion/limitation is a known inducer of lipogenesis in oleaginous microorganisms. Fold increase refers to the fold increase in cDNA abundance after 24 hours of culture in low nitrogen medium.

[2] = test system: Prototheca moriformis (UTEX 1435); assay: Steady state thioesterase mRNA level by real-time RT-PCR (promoter testing, normalized to cd189); conditions: low nitrogen medium

Molecule	Fold increased (cDNA abundance) [1]	steady state C. camphora thioesterase mRNA level relative to control (C. reinhardtii beta tubulin promoter) [2]
B1	10.1	–
B2	17.35	–
B3	6.21	up to four
B4	4.92	–
B5	10.91	–
